# US12514920B1, “Respiratory syncytial virus mRNA vaccine, and preparation method therefor and use thereof” (Hangzhou Tianlong Pharmaceutical Co., Ltd., priority 2024, dated 2026)
# Numbering of substitutions follows the chain as printed.
# B1: YK-RSV-009 (protein)
# chain: QNITEEFYCSTCSAVSKGYLGALRTGWYTSVILIELSNIKENKCNGTDAKVKLIKQELDKYKNAVTDLQLLMQSTPATGSGSAIASGVAVSKVLHLEGEVNKIKSALLSTNKAVVSLSNGVSVLTFKVLDLKNYIDKQLLPIVNKQSCSIPNIETVIEFQQKNNRLLEITREFSVNAGVTTPVSTYMLTNSELLSLINDMPITNDQKKLMSNNVQIVRQQSYSIMSIIKEEVLAYVVQLPLYGVIDTPCWKLHTSPLCTTNTKEGSNICLTRTDRGWYCDNAGSVSFFPQAETCKVQSNRVFCDTMNSRTLPSEVNLCNVDIFNPKYDCKIMTSKTDVSSSVITSLGAIVSCYGKTKCTASNKNRGIIKTFSNGCDYVSNKGVDTVSVGNTLYYVNKQEGQSLYVKCEPIINFYDPLVFPSSEFDASISQVNEKINQSLAFIRKSDELLHNVNAGKSTTNIMITTIIIVIIVILLSLIAVGLLLY
# B2: YK-RSV-048 (protein)
# chain: QNITEEFYQSTCSAVSKGYLGALRTGWYTSVITIELSNIKENKCNGTDAKVKLIKQELDKYKNAVTDLQLLMQSTPATGSGSFLGFLCGVGSAIASGVAVSKVLHLEGEVNKIKSALLSTNKAVVSLSNGVSVLTFKVLDLKNYIDKQLLPILNKQSCSIPNIETVIEFQQKNNRLLEITREFSVNAGVTTPVSTYMLTNSELLSLINDMPITNDQKKLMSNNVQIVRQQSYSIMSIIKEEVLAYVVQLPLYGVIDTPCWKLHTSPLCTTNTKEGSNICLTRTDRGWYCDNAGSVSFFPQAETCKVQSNRVFCDTMCSRTLPSEVNLCNVDIFNPKYDCKIMTSKTDVSSSVITSLGAIVSCYGKTKCTASNKNRGIIKTFSNGCDYVSNKGVDTVSVGNTLYYVNKQEGQSLYVKGEPIINFYDPLVFPSDEFDASISQVNEKINQSLAFIRKSDELLHNVNAGKSTTNIMITTIIIVIIVILLSLIAVGLLLY
# B3: YK-RSV-050 (protein)
# chain: B2 chain with L87C, C88L
# B4: YK-RSV-043 (protein)
# chain: B1 chain with C9Q, L33T, T75C, S86C, V143L, C407G, S422D
# B5: YK-RSV-055 (protein)
# chain: B1 chain with C9Q, L33T, A83C, V143L, I228C, C407G, S422D
# B6: YK-RSV-010 (protein)
# chain: B1 chain with C9Q, S30C, L124C, C407G
# B7: YK-RSV-057 (protein)
# chain: B1 chain with C9Q, L33T, A83C, V143L, I227C, C407G, S422D
# Tested on: RSV pre-F antibody (3C12)
# Experiment: Binding of epitope Φ of RSV F antigen mutants by flow cytometry
# Settings: flow cytometry; epitope Φ, antibody 3C12
# Procedure, shortened: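 293T cells were transfected with mRNA-LNP (300 ng mRNA) encoding the RSV F mutants and harvested after 16 h. Cells were stained with fluorescent 3C12 (pre-F-specific epitope Φ) or 11A9 (epitope II, pre-F and post-F) for 2 h at 4 °C in the dark, then washed and read by flow cytometry on 1×10^4 cells per measurement.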
row,Molecule,RSV pre-F antibody (3C12) Epitope Φ (%) binding rate [%]
1,B1,87.4
2,B2,89.6
3,B3,86.5

# Same assay, conditions: ratio of epitope Φ (3C12) to epitope II (11A9) binding rate
row,Molecule,Φ/II (%)
1,B1,93.9
2,B4,95.3
3,B5,97.0
4,B6,97.3
5,B7,97.1
6,B2,94.2
7,B3,93.0

# Tested on: RSV pre-F antibody (7H11)
# Experiment: ELISA binding of RSV F antigen mutants, epitope Quaternary
# Settings: not given
# Method: (§1) To investigate the binding of the RSV F antigen mutants to antibodies recognizing different epitopes, the binding amount was determined by an ELISA method in this example.
# (§2) • 293T cells (purchased from ATCC cell bank); • Primary antibody: RSV pre-F antibody (3C12), epitope ([…] (Novoprotein, Cat. No.: DA101); • RSV pre-F antibody (7H11), epitope Quaternary (Novoprotein, Cat. No.: DA109); • RSV F antibody (11A9), epitope II (Novoprotein, Cat. No.: DA091); • RSV F antibody (4B9), epitope III (Novoprotein, Cat. No.: DA110); • RSV pre-F antibody (7E11), epitope V (Cat. No.: DA119); • Standard: RSV-pre-F trimer protein (Novoprotein, Cat. No.: DRA230); • Secondary antibody: peroxidase AffiniPure goat anti-human IgG (H+L) (Yeasen, Cat. No.: N/A); • Experimental group: mRNA vaccines after screening in Example 5;
# (§3) Cell culture and transfection, and protein sample preparation: the experimental procedures were the same as in Example 3.
# (§4) Detection of antigen expression by ELISA: the experimental procedures were the same as in Example 5.
# (§5) In the present application, the binding of different mutant antigens to antibodies recognizing different epitopes was detected by ELISA, and the strength of the binding of the antigens to the antibodies was measured by the binding amount. (1) The RSV pre-F antibody (3C12) recognizing the epitope Φ binds only to the F protein in the pre-fusion conformation; (2) the RSV pre-F antibody (7H11) recognizes the epitope Quaternary (spanning both epitopes IV and V) and specifically binds to the F protein in the pre-fusion conformation; (3) the RSV F antibody (11A9) recognizing the epitope II can recognize both the pre-fusion and post-fusion conformations of the F protein; (4) the RSV F antibody […] recognizing the epitope III preferentially recognizes the pre-fusion conformation and has relatively weak binding activity for the post-fusion conformation; (5) the RSV pre-F antibody (7E11) recognizing the epitope V binds only to the F protein in the pre-fusion conformation.
row,Molecule,"ELISA binding amount, Epitope Quaternary, RSV pre-F antibody (7H11) [ng/mL]"
1,B1,29
2,B4,922
3,B5,4317
4,B6,39
5,B7,6346
6,B2,2873
7,B3,3722

# Same assay, conditions: antibody 7H11, relative to PC-RSV-064
row,Molecule,"Binding amount to antibody/binding amount of PC-RSV-064 to antibody, Epitope Quaternary"
1,B1,0.01
2,B4,0.26
3,B5,1.20
4,B6,0.01
5,B7,1.76
6,B2,0.80
7,B3,1.03

# Tested on: RSV F antibody (4B9)
# Experiment: ELISA binding of RSV F antigen mutants, epitope III
# Settings: not given
# Method: as §1, §2, §3, §4, §5
row,Molecule,"ELISA binding amount, Epitope III, RSV F antibody (4B9) [ng/mL]"
1,B1,358
2,B4,6529
3,B5,7298
4,B6,534
5,B7,4779
6,B2,4655
7,B3,3494

# Same assay, conditions: antibody 4B9, relative to PC-RSV-064
row,Molecule,"Binding amount to antibody/binding amount of PC-RSV-064 to antibody, Epitope III"
1,B1,0.12
2,B4,2.28
3,B5,2.54
4,B6,0.19
5,B7,1.67
6,B2,1.62
7,B3,1.22
